Reference: publication PMC3836750, “A Novel Antibody Humanization Method Based on Epitopes Scanning and Molecular Dynamics Simulation” (PLoS ONE, 2013)

Experiments:
[1] = target: refined 1-17-2 antibody (humanized antibody with back mutation of the 5 key residues L38, L43, L45, L71 and H77) (rat | human); test: SPR; BIACORE T200, CM5 chip; antibody captured on immobilized anti-human IgG (Fc) (human antibody capture kit); DEC-S solution passed through, 6 concentrations; regeneration 3 M magnesium chloride; KD = kd/ka
DEC-205 protein (DEC-S) [2] = target: T1, DEC-205 protein (DEC-S) (Homo sapiens, UniProt O60449); test: SPR; BIACORE T200, CM5 chip; murine (rat) antibody immobilized by amine coupling; DEC-205 protein 500 to 15.625 nM, 240 sec injection at 30 µl/min, 600 sec dissociation; regeneration Glycine-HCl pH 2.5; KD = kd/ka; conditions: both partners purified
T1 construct: DEC-205 protein in solution (DEC-S) used as SPR analyte; DEC-S is probably a soluble form of DEC-205

DEC-205 protein (DEC-S) [3] = target: T1, DEC-205 protein (DEC-S); test: SPR; BIACORE T200, CM5 chip; antibody captured on immobilized anti-human IgG (Fc) (human antibody capture kit); DEC-S solution passed through, 6 concentrations; regeneration 3 M magnesium chloride; KD = kd/ka; conditions: both partners purified

T1 sequence (O60449 28-1722): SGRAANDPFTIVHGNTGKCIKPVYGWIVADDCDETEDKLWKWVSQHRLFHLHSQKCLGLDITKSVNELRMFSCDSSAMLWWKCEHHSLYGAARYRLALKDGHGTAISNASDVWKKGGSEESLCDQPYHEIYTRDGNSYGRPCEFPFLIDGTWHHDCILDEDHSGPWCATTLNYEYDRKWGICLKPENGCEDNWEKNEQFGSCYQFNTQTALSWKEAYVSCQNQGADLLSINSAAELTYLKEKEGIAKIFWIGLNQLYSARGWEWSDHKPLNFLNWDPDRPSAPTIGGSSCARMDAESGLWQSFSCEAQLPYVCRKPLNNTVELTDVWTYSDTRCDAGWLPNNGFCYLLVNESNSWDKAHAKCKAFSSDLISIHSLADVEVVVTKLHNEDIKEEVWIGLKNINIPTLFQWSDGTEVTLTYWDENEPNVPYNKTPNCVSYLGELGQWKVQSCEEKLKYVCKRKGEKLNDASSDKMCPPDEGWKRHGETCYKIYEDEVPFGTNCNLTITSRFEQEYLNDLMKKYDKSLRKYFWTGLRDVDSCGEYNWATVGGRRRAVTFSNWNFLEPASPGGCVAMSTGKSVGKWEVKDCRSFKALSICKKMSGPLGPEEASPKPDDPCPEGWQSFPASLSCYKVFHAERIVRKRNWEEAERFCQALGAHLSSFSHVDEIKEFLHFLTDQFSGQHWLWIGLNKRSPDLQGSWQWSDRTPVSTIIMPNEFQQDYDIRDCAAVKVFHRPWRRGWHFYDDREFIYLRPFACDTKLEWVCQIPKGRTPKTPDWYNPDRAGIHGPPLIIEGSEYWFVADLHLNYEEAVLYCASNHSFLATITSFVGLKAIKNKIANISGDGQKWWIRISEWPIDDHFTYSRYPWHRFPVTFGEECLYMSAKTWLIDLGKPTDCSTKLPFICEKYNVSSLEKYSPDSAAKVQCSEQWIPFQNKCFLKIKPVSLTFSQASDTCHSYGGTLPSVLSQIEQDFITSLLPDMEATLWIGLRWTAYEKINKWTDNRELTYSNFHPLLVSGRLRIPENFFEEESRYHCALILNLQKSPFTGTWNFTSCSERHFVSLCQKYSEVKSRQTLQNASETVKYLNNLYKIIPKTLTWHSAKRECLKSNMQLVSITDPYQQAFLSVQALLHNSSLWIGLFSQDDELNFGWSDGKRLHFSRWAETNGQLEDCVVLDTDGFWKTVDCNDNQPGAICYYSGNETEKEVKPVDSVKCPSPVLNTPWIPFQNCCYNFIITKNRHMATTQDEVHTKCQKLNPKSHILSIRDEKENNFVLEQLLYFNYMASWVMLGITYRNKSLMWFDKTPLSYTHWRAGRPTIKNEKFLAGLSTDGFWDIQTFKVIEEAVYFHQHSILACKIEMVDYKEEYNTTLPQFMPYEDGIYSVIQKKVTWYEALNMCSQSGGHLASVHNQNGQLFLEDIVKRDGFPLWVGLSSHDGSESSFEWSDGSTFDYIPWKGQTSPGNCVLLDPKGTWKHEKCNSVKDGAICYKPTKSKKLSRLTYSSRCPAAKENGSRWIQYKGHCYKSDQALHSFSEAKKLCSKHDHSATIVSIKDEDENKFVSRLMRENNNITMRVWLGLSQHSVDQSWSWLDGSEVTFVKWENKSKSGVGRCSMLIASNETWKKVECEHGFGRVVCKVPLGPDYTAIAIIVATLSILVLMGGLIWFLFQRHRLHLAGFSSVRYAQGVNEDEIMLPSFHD

Molecule	Kd (DEC-205 protein (DEC-S) [3])	koff (DEC-205 protein (DEC-S) [3])	kon (DEC-205 protein (DEC-S) [3])	further results
DEC-205 protein (DEC-S) (from UniProt O60449 28-1722) (receptor)				Kd [1]: 16.7 nM; koff [1]: 0.000137 s⁻¹; kon [1]: 8220 M⁻¹ s⁻¹
1-17-2 rat anti-human DEC-205 monoclonal antibody (antibody, V domains shown, VH of rat antibody 1-17-2; rat IgG1 heavy chain constant region (isotype IgG1 stated); VL of rat antibody 1-17-2; rat kappa light chain constant region (isotype kappa stated); Rat IgG1, kappa; also called Rat Ab; rat mAb; source: expressed in vitro and purified; hybridoma 1-17-2 from rats immunized with DEC-1-YB2/0 cells) VH: EVQLVESGGGLVQPGRSLKLSCAASGFTFSHYYMAWVRQAPTKGLEWVAYISTDGGTTYYRDSVKGRFTISRDNARSTLYLQVDSLRSEDTATYYCTTGQPGYNLDYFDYWGQGVMVTVSS VL: DIQMTQSPASLSASLEEIVTITCQASQDIGYWLAWYQLKPGKSPQLLIYGATSLADGVSSRFSGSRSGTQYSLKISRLQVEDIGIYYCQQASSVPWTFGGGTKLELK				Kd (DEC-205 protein (DEC-S) [2]): 29.7 nM; koff (DEC-205 protein (DEC-S) [2]): 0.000185 s⁻¹; kon (DEC-205 protein (DEC-S) [2]): 6290 M⁻¹ s⁻¹

Continued, in another order:

Kd (DEC-205 protein (DEC-S) [3])	koff (DEC-205 protein (DEC-S) [3])	kon (DEC-205 protein (DEC-S) [3])	Molecule	further results
373 nM	0.00105 s⁻¹	2930 M⁻¹ s⁻¹	humanized 1-17-2 antibody (30 mutations based on the chimeric antibody) (antibody, V domains shown, human heavy chain constant region contained in the MH vector; human light chain constant region contained in the MK vector; Humanized VL and VH fragments were synthesized; also called Hu Ab; humanized antibody) VH: EVQLVESGGGLVQPGRSLRLSCAASGFTFSHYYMAWVRQAPGKGLEWVAYISTDGGTTYYRDSVKGRFTISRDNSKNTLYLQMNSLRSEDTAVYYCTTGQPGYNLDYFDYWGQGTLVTVSS VL: DIQMTQSPSSLSASVGDRVTITCQASQDIGYWLAWYQQKPGKAPKLLIYGATSLADGVPSRFSGSGSGTDFTLTISSLQPEDFATYYCQQASSVPWTFGGGTKLEIK	
35.4 nM	0.000273 s⁻¹	8040 M⁻¹ s⁻¹	chimeric 1-17-2 antibody (variable regions of 1-17-2 with constant regions of a human antibody) (antibody, V domains shown, as the VH of m1; human heavy chain constant region contained in the MH vector; as the VL of m1; human light chain constant region contained in the MK vector; Captured by anti-human IgG (Fc) in SPR, so a human IgG; Vectors MH and MK from Dr. Linqi Zhang; also called Chi Ab; chimeric antibody) VH: EVQLVESGGGLVQPGRSLKLSCAASGFTFSHYYMAWVRQAPTKGLEWVAYISTDGGTTYYRDSVKGRFTISRDNARSTLYLQVDSLRSEDTATYYCTTGQPGYNLDYFDYWGQGVMVTVSS VL: DIQMTQSPASLSASLEEIVTITCQASQDIGYWLAWYQLKPGKSPQLLIYGATSLADGVSSRFSGSRSGTQYSLKISRLQVEDIGIYYCQQASSVPWTFGGGTKLELK	
